For the data set the following is noted: Homo sapiens; pH 7.4; Thermal; CD; Phosphate buffer saline; whole UniProt chain shown.

B1: SH2 domain-containing protein 1A wild type, O60880 (protein)
chain: MDAVAVYHGKISRETGEKLLLATGLDGSYLLRDSESVPGVYCLCVLYHGYIYTYRVSQTETGSWSAETAPGVHKRYFRKIKNLISAFQKPDQGIVIPLQYPVEKKSSARSTQGTTGIREDPDVCLKAP
For the protein B1, the Tm (commonly the temperature at the midpoint of the melting transition) was 57.8 °C.

The values above are taken from FireProtDB (doi:10.1021/bi034798l).
